Reference: the RNAGym collection of RNA variant scans (doi:10.7554/elife.80360)

B1: HDV Ribozyme (parent)
chain: GGCCGGCAUGGUCCCAGCCUCCUCGCUGGCGCCGGCUGGGCAACAUUCCGAGGGGACCGUCCCCUCGGUAAUGGCGAAUGGGACCCA

Variants of: B1
Assay: self-cleavage, relative activity (ratio to wild type); higher = more cleavage; co-transcriptional
Work on U20G G53U yielded a self-cleavage of 0.208.
For U20G U72A, the self-cleavage was 0.0875.
Variant U20C C85G has a self-cleavage of 0.0519.
Variant U20A G52A has a self-cleavage of 0.0415.
For U20A G52U, the self-cleavage was 0.0462.
With U20G G54A the self-cleavage was 0.201.
Variant U20G G54U has a self-cleavage of 0.125.
In the case of C19G G34A, the self-cleavage is reported as 0.248.
C19G G34C showed a self-cleavage of 0.0978.
In the case of U20C C75A, the self-cleavage is reported as 0.0594.
Variant U20G G38U has a self-cleavage of 0.0573.
Work on U20G G31C yielded a self-cleavage of 0.
With U20G G31A the self-cleavage was 0.
In the case of U20A C84A, the self-cleavage is reported as 0.208.
For C21A U79G, the self-cleavage was 0.0396.
Variant C19G U37G has a self-cleavage of 0.111.
U20C C58G gave a self-cleavage of 0.0923.
In the case of C21A U47C, the self-cleavage is reported as 0.
Work on C21A U47G yielded a self-cleavage of 0.0504.
In the case of U20A C57A, the self-cleavage is reported as 0.0978.
C21G G35U showed a self-cleavage of 0.104.
Work on U20A G73A yielded a self-cleavage of 0.0791.
For U20C G50A, the self-cleavage was 0.306.
With U20C G55A the self-cleavage was 0.0405.
C19U U69C showed a self-cleavage of 0.0997.
In the case of C19U C62G, the self-cleavage is reported as 0.
C19G U46G gave a self-cleavage of 0.107.
C19G U46A showed a self-cleavage of 0.
U20A G29A showed a self-cleavage of 0.0773.
U20G U37G showed a self-cleavage of 0.
Variant U20C G82C has a self-cleavage of 0.0639.
C19U G67U gave a self-cleavage of 0.145.
U20A G40A showed a self-cleavage of 0.0426.
For C19G C32G, the self-cleavage was 0.0462.
C19U G34C gave a self-cleavage of 0.0346.
With U20A A43U the self-cleavage was 0.0386.
With U20A C75G the self-cleavage was 0.0791.
Variant C21G G40U has a self-cleavage of 0.0308.
For C19G U60G, the self-cleavage was 0.0405.
In the case of C19G U60C, the self-cleavage is reported as 0.0627.
C19G U60A showed a self-cleavage of 0.0959.
In the case of C19G C49G, the self-cleavage is reported as 0.0426.
With U20C U79A the self-cleavage was 0.
C21G C86U showed a self-cleavage of 0.0791.
Work on C19G U20C yielded a self-cleavage of 0.0692.
In the case of U20G G34A, the self-cleavage is reported as 0.
For C19G C58G, the self-cleavage was 0.0739.
In the case of C21A G53U, the self-cleavage is reported as 0.135.
Work on C21A G29C yielded a self-cleavage of 0.0604.
With C21A G29A the self-cleavage was 0.0875.
Variant C19U C57A has a self-cleavage of 0.0886.
U20G A51C showed a self-cleavage of 0.332.
For U20G A51G, the self-cleavage was 0.145.
U20C A51U gave a self-cleavage of 0.185.
Variant C19U A77C has a self-cleavage of 0.0811.
U20C A83G gave a self-cleavage of 0.149.
For C21G G80U, the self-cleavage was 0.0963.
For C21G G80A, the self-cleavage was 0.0196.
C19G G31A gave a self-cleavage of 0.0554.
With U20C G29A the self-cleavage was 0.0773.
With C19U C26U the self-cleavage was 0.718.
For U20A U23A, the self-cleavage was 0.277.
U20C C33G showed a self-cleavage of 0.
For U20C G76A, the self-cleavage was 0.198.
U20C G76U showed a self-cleavage of 0.17.
For U20C A42U, the self-cleavage was 0.0978.
U20C G80A showed a self-cleavage of 0.0496.
U20C A71C gave a self-cleavage of 0.0692.
C21G C26U showed a self-cleavage of 0.0615.
With C21G C26A the self-cleavage was 0.
In the case of C21A A56U, the self-cleavage is reported as 0.108.
For U20A U47G, the self-cleavage was 0.
U20C G38C gave a self-cleavage of 0.0831.
With U20C G38U the self-cleavage was 0.
C21A G38A gave a self-cleavage of 0.0237.
With U20A G54A the self-cleavage was 0.116.
C21G G55U gave a self-cleavage of 0.0755.
Variant U20G G67C has a self-cleavage of 0.554.
U20G G73A showed a self-cleavage of 0.113.
U20A U65C gave a self-cleavage of 0.0639.
U20A U65G showed a self-cleavage of 0.101.
For C19U C21U, the self-cleavage was 0.0378.
With C19G C86G the self-cleavage was 0.104.
C19G C86A showed a self-cleavage of 0.
U20G U46A showed a self-cleavage of 0.192.
In the case of C19G G28U, the self-cleavage is reported as 0.208.
Work on C21G A51C yielded a self-cleavage of 0.
C19G G80A showed a self-cleavage of 0.131.
C19U U72A showed a self-cleavage of 0.0504.
In the case of C21A C36A, the self-cleavage is reported as 0.117.
In the case of C19U C44A, the self-cleavage is reported as 0.
In the case of C19U C44U, the self-cleavage is reported as 0.0852.
C19G C61A gave a self-cleavage of 0.106.
For U20G U47G, the self-cleavage was 0.185.
In the case of U20G A83C, the self-cleavage is reported as 0.158.
U20G A83G gave a self-cleavage of 0.16.
U20C C49A gave a self-cleavage of 0.172.
Variant C19U A78U has a self-cleavage of 0.111.
U20A U79A showed a self-cleavage of 0.0573.
U20A U79G gave a self-cleavage of 0.0665.
Variant U20A U79C has a self-cleavage of 0.
Work on U20G C66G yielded a self-cleavage of 0.511.
Work on U20G C32G yielded a self-cleavage of 0.0475.
C21G U65A showed a self-cleavage of 0.0536.
Work on C21G U27G yielded a self-cleavage of 0.
For C21G U47A, the self-cleavage was 0.0773.
For C19U U46G, the self-cleavage was 0.
In the case of C19U U46C, the self-cleavage is reported as 0.213.
With U20C G53C the self-cleavage was 0.151.
Work on C21A U46G yielded a self-cleavage of 0.138.
For C19U G59C, the self-cleavage was 0.205.
Variant C19U G59U has a self-cleavage of 0.194.
With U20C G74U the self-cleavage was 0.104.
In the case of U20A C48G, the self-cleavage is reported as 0.
U20C A77U showed a self-cleavage of 0.0898.
For C21G A71U, the self-cleavage was 0.
For U20G C61A, the self-cleavage was 0.142.
In the case of U20A U27A, the self-cleavage is reported as 0.0723.
U20G C33G showed a self-cleavage of 0.185.
For U20A U69A, the self-cleavage was 0.
Work on C21A G74A yielded a self-cleavage of 0.0536.
With U20A C85U the self-cleavage was 0.0405.
For C19G U69C, the self-cleavage was 0.
Variant C19G U69A has a self-cleavage of 0.
For U20A C22U, the self-cleavage was 0.
Variant U20A C22G has a self-cleavage of 0.
In the case of C21A C84U, the self-cleavage is reported as 0.0489.
Variant C19U G31U has a self-cleavage of 0.115.
C19U G31C gave a self-cleavage of 0.0845.
C21G U60G showed a self-cleavage of 0.
Variant U20A G34C has a self-cleavage of 0.199.
With U20A G34A the self-cleavage was 0.0992.
With U20A G39C the self-cleavage was 0.185.
C19U U23G showed a self-cleavage of 0.237.
In the case of C19U C75G, the self-cleavage is reported as 0.0739.
U20A C64G gave a self-cleavage of 0.0639.
With U20A C64A the self-cleavage was 0.113.
Work on C21G C30G yielded a self-cleavage of 0.
U20C C30U showed a self-cleavage of 0.157.
U20C C30A gave a self-cleavage of 0.0923.
Work on U20A A83G yielded a self-cleavage of 0.14.
Work on U20G G82A yielded a self-cleavage of 0.123.
With C21G C24G the self-cleavage was 0.0504.
Variant C21G G67A has a self-cleavage of 0.
For U20G A78U, the self-cleavage was 0.
In the case of C21G C61U, the self-cleavage is reported as 0.032.
U20A A56G showed a self-cleavage of 0.0536.
Variant U20A A56C has a self-cleavage of 0.0519.
With U20C G40U the self-cleavage was 0.113.
U20C G67A showed a self-cleavage of 0.17.
C19G G55C showed a self-cleavage of 0.0475.
Work on C19G G55A yielded a self-cleavage of 0.0346.
C19U C66A gave a self-cleavage of 0.182.
Variant C19U C66U has a self-cleavage of 0.22.
With U20C G68C the self-cleavage was 0.192.
In the case of U20C G68A, the self-cleavage is reported as 0.111.
In the case of U20C G68U, the self-cleavage is reported as 0.145.
With C21A C75U the self-cleavage was 0.0297.
C21G C44U gave a self-cleavage of 0.0898.
C21G C44A gave a self-cleavage of 0.
C19U A51C gave a self-cleavage of 0.204.
Variant C19G C85G has a self-cleavage of 0.111.
C21G C85A showed a self-cleavage of 0.0504.
In the case of C21A U69G, the self-cleavage is reported as 0.0723.
With C19U A70U the self-cleavage was 0.169.
C21G A83C gave a self-cleavage of 0.
In the case of C19G G68C, the self-cleavage is reported as 0.0875.
